In publication PMC2795164, “VEZF1 Elements Mediate Protection from DNA Methylation” one finds binding result and binding signal data, which are given here for four molecules.

The target in series [1] is T1, ZF5, recombinant (Gallus gallus (chicken), UniProt Q92010 1-448, R436A).
T1 sequence: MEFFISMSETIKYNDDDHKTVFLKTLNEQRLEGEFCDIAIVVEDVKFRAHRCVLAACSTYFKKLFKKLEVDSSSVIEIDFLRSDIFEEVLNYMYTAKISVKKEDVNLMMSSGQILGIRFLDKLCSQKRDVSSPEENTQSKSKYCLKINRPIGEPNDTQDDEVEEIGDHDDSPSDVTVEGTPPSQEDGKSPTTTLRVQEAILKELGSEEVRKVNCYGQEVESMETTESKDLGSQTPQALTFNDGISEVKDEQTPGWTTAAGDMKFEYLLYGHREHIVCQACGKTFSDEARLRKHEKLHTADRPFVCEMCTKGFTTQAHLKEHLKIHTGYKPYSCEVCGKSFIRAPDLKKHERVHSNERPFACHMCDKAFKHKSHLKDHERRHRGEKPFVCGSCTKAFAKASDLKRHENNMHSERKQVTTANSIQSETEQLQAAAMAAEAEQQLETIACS
Description: EMSA; EMSA buffer, salt, pH and temperature not given in the material; competitors at 50-fold molar excess. Particulars: protein: recombinant; label: 32P (probe); blunt.

A further series addresses SP1, recombinant (Gallus gallus (chicken), UniProt A0A8V1A4P9 1-760). The series is described as above. Particulars: protein: recombinant; label: 32P (probe); blunt.
Another series addresses SP3, recombinant (Gallus gallus (chicken), UniProt Q90WR8 1-771). The description is as above. Particulars: protein: recombinant; label: 32P (probe); blunt.
Series [2] has as its target T2, VEZF1 (BGP1) (Gallus gallus (chicken), UniProt I6LDD9 1-555).
T2 sequence: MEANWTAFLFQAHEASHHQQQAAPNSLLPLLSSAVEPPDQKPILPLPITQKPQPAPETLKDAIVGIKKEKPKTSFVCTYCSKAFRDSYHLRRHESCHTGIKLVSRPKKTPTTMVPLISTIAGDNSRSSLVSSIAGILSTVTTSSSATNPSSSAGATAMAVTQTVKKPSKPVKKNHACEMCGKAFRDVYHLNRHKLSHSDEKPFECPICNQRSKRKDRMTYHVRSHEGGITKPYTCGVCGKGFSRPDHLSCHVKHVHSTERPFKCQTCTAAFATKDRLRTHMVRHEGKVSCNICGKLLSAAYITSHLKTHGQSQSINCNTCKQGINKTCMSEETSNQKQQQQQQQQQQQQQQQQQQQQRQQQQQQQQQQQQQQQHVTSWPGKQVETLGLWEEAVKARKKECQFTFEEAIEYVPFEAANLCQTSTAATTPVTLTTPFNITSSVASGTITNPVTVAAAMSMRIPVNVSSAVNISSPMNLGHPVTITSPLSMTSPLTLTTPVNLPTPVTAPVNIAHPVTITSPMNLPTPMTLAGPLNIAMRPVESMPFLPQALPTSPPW
The series is described as above. Particulars: protein: ivt; label: 32P (probe); blunt.

The target in series [3] is T1, ZF5, recombinant. Briefly: EMSA; no specificity for the dG-dC string; EMSA buffer, salt, pH and temperature not given in the material; competitors at 50-fold molar excess. Particulars: protein: recombinant; label: 32P (probe); blunt. In general terms: Mobility shift assays separate free from complexed probe on a gel.
The target in series [4] is T2, VEZF1 (BGP1). Briefly: EMSA; EMSA buffer, salt, pH and temperature not given in the material; competitors at 50-fold molar excess. Particulars: protein: ivt; label: 32P (probe); blunt. This is another data set of the same source.

Sequence of SP3, recombinant (Q90WR8 whole entry): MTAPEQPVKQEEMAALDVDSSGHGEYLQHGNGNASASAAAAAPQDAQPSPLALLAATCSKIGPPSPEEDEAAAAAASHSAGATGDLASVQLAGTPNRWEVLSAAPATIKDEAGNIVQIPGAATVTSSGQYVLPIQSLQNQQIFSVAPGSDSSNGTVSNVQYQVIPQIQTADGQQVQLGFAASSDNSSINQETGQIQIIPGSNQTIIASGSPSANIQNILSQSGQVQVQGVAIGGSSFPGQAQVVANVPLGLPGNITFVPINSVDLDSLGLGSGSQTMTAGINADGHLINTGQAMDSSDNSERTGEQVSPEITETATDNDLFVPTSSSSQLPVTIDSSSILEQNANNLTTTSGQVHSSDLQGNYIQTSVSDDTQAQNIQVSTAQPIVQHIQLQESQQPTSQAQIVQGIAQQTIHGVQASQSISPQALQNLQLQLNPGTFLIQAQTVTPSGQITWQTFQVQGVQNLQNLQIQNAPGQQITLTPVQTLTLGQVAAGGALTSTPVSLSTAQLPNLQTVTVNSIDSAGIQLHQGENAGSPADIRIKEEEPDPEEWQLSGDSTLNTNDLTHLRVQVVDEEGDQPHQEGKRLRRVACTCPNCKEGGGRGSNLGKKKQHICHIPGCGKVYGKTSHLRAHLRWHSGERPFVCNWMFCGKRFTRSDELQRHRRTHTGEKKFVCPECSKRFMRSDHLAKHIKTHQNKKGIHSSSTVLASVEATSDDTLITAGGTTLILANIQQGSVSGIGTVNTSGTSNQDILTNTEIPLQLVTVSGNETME
Sequence of SP1, recombinant (A0A8V1A4P9 entry or part of it): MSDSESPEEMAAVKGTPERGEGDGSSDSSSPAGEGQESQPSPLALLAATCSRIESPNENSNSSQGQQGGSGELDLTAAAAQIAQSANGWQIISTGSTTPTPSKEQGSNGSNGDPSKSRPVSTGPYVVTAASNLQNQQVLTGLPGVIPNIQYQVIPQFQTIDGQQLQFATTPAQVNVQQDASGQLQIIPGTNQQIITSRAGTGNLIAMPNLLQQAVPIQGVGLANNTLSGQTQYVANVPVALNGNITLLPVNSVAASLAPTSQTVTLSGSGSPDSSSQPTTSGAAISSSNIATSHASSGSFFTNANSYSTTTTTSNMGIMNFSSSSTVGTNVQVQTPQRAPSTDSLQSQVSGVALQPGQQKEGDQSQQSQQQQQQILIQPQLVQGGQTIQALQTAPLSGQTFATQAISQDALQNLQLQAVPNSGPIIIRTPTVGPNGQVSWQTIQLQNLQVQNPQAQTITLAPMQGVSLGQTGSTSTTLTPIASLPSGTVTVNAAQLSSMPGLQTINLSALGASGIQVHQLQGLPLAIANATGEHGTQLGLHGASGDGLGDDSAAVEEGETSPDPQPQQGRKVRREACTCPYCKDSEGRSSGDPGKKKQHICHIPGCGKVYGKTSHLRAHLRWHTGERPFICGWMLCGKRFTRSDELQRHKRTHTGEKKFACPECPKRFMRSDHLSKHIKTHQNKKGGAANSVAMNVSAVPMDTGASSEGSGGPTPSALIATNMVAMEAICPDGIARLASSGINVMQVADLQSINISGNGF

B1: HS4 FI wt (dsDNA)
DNA 1: GGAGCTCACGGGGACAGCCCCCCCCCAAAGCCCCCAGGGA
DNA 2: TCCCTGGGGGCTTTGGGGGGGGGCTGTCCCCGTGAGCTCC
Turning to B1, the binding result is on record as “no binding” with ZF5, recombinant [1]; “binds” with SP1, recombinant; “binds” in the series with SP3, recombinant; “binds” with VEZF1 (BGP1) [2].

B2: glo wt (betaA-globin promoter, G16) (dsDNA)
DNA 1: AATTGCAGAGCTGGGAATCGGGGGGGGGGGGGGGGCGGGTGGTGGTGTGG
DNA 2: CCACACCACCACCCGCCCCCCCCCCCCCCCCGATTCCCAGCTCTGCAATT
In the case of B2, the binding result with SP1, recombinant was “binds”; with SP3, recombinant, “binds”; with VEZF1 (BGP1) [2] it was “binds”.

B3: HS4 FIII wt (dsDNA)
DNA 1: AGGCGCGCCCCGGTCCGGCGCTCCCCCCGCATCCCCGAGCCGGGGCGCGCCT
DNA 2: AGGCGCGCCCCGGCTCGGGGATGCGGGGGGAGCGCCGGACCGGGGCGCGCCT
Regarding B3, the binding result was “no binding” in the series with SP1, recombinant; “no binding” in the series with SP3, recombinant; “binds” in the series with ZF5, recombinant [3]. In the series with VEZF1 (BGP1) [4], the binding signal is ~2 fold lower affinity than FI and betaA sites.

B4: HS4 FV wt (dsDNA)
DNA 1: CCTGCAGACACCTGGGGGGATACGGGGAAAAAGCTTTAGG
DNA 2: CCTAAAGCTTTTTCCCCGTATCCCCCCAGGTGTCTGCAGG
For the molecule B4, the binding result is reported as “no binding” with SP1, recombinant and “no binding” in the series with SP3, recombinant. Further, the binding signal with VEZF1 (BGP1) [4] was ~5 fold lower affinity than FI and betaA sites.
